For one assay, the target named is HLA-A*01:01. Nature of the assay: IEDB peptide-MHC binding, purified MHC/direct/fluorescence; filed as Kd, often an IC50 or EC50 that approximates it; ≥ and ≤ were set here for values at or beyond the usual limits of such assays.
For assay [1], the target named is HLA-A*02:01. Described as above.
In the next assay the target is HLA-A*11:01. Described as above.
The target of a further assay is HLA-A*26:02. The description is as above.
The target in another assay is HLA-A*26:03. Described as above.
For another assay, the target named is HLA-A*31:01. The assay is described as above.
The target in the next assay is HLA-A*68:02. The description is as above.
In the next assay the target is HLA-A*69:01. Described as above.
In assay [2] the target is HLA-B*07:02. The assay is described as above.
For another assay, the target named is HLA-B*08:02. The description is as above.
In assay [3] the target is HLA-B*15:01. The assay is described as above.
The target in the next assay is HLA-B*15:02. The assay is described as above. Conditions: source organism: Aracatuba virus.
Another assay deals with HLA-B*27:05. The assay is described as above.
For another assay, the target named is HLA-B*39:01. Described as above.
A further assay addresses HLA-B*46:01. The description is as above.
For the next assay, the target named is HLA-B*48:01. The assay is described as above.
The next assay has as its target HLA-B*57:01. The assay is described as above.
The target in another assay is HLA-B*58:01. The assay is described as above.
The target in assay [4] is HLA-B*15:17. Nature of the assay: IEDB peptide-MHC binding, purified MHC/competitive/fluorescence; filed as Kd, often an IC50 or EC50 that approximates it; ≥ and ≤ were set here for values at or beyond the usual limits of such assays. The conditions noted are these: source organism: Vaccinia virus.
Another assay deals with HLA-B*35:01. Described as above. Conditions: source organism: Vaccinia virus.
The next assay concerns the target HLA-A*26:01. Nature of the assay: IEDB peptide-MHC binding, purified MHC/direct/fluorescence; filed as Kd, often an IC50 or EC50 that approximates it; ≥ and ≤ were set here for values at or beyond the usual limits of such assays. The conditions noted are these: source organism: Mycobacterium tuberculosis str. Haarlem.
For assay [5], the target named is HLA-B*08:01. Described as above.
The next assay has as its target HLA-B*08:03. The assay is described as above.
The target of assay [6] is HLA-B*15:17. The assay is described as above.
The next assay concerns the target HLA-B*18:01. Described as above.
The next assay deals with HLA-B*40:01. Described as above.
The target of assay [7] is HLA-A*02:01. Kind of assay: IEDB peptide-MHC binding, purified MHC/competitive/fluorescence; ≥ and ≤ were set here for values at or beyond the usual limits of such assays.
Another assay has as its target HLA-A*24:02. The assay is described as above.
In assay [8] the target is HLA-B*08:01. The description is as above.
Another assay addresses HLA-B*15:09. Nature of the assay: IEDB peptide-MHC binding, purified MHC/direct/fluorescence; filed as Kd, often an IC50 or EC50 that approximates it; ≥ and ≤ were set here for values at or beyond the usual limits of such assays. The conditions noted are these: source organism: Vibrio cholerae V52.
In another assay the target is HLA-B*44:02. Described as above. Conditions: source organism: Vibrio cholerae.
For the next assay, the target named is HLA-A*30:01. Kind of assay: IEDB peptide-MHC binding, purified MHC/competitive/fluorescence; filed as Kd, often an IC50 or EC50 that approximates it; ≥ and ≤ were set here for values at or beyond the usual limits of such assays. Conditions: source organism: Vibrio cholerae 2740-80.
Assay [9] addresses HLA-B*07:02. Nature of the assay: IEDB peptide-MHC binding, purified MHC/competitive/fluorescence; ≥ and ≤ were set here for values at or beyond the usual limits of such assays. The conditions noted are these: source organism: Zaire ebolavirus.
Assay [10] has as its target HLA-B*15:01. The description is as above. The conditions noted are these: source organism: Zaire ebolavirus.
The target in another assay is HLA-A*02:12. Nature of the assay: IEDB peptide-MHC binding, purified MHC/direct/fluorescence; filed as Kd, often an IC50 or EC50 that approximates it; ≥ and ≤ were set here for values at or beyond the usual limits of such assays. The conditions noted are these: source organism: Burkholderia mallei ATCC 23344.
The target of a further assay is HLA-A*02:16. The description is as above. Conditions: source organism: Burkholderia mallei ATCC 23344.
A further assay deals with HLA-A*02:19. The description is as above. Conditions: source organism: Burkholderia mallei ATCC 23344.
The target of a further assay is HLA-A*03:01. The description is as above. Conditions: source organism: Burkholderia mallei ATCC 23344.
The target of another assay is HLA-A*24:03. The assay is described as above. Conditions: source organism: Burkholderia mallei ATCC 23344.
In another assay the target is HLA-A*29:02. The assay is described as above. Conditions: source organism: Burkholderia mallei ATCC 23344.
For another assay, the target named is HLA-B*27:03. Described as above. The conditions noted are these: source organism: Burkholderia mallei ATCC 23344.
Setting [11] is: source organism: Aracatuba virus.
The mark [12] stands for this setting: source organism: Mycobacterium tuberculosis.
Where [13] appears, read: source organism: Mycobacterium tuberculosis str. Haarlem.
Setting [14] is: source organism: Vaccinia virus Copenhagen.
Where [15] appears, read: source organism: Vibrio cholerae.
[16] abbreviates: source organism: Vibrio cholerae V52.
Where [17] appears, read: source organism: Zaire ebolavirus.
Where [18] appears, read: source organism: Burkholderia mallei ATCC 23344.

pIC50, pKd: −log10 of the molar value.

In the case of LLLLISLVY, the pKd with HLA-A*01:01 (setting [11]), with HLA-A*02:01 [1] (setting [11]), in the assay with HLA-A*11:01 (setting [11]), with HLA-A*26:02 (source organism: Variola virus), with HLA-A*26:03 (source organism: Variola virus) and with HLA-A*31:01 (setting [11]) was not above 4.70 in each case. For the same sequence, the pKd (commonly −log10 of the Kd, conventionally taken in molar units) is not above 4.70 with HLA-A*68:02 (setting [11]); not above 4.70 with HLA-A*69:01 (setting [11]); not above 4.70 with HLA-B*07:02 [2] (setting [11]); not above 4.70 in the assay with HLA-B*08:02 (source organism: Variola virus); not above 4.70 with HLA-B*15:01 [3] (setting [11]); 5.34 in the assay with HLA-B*15:02. Besides, the pKd with HLA-B*27:05 (setting [11]), with HLA-B*39:01 (source organism: Variola virus), with HLA-B*46:01 (setting [11]), with HLA-B*48:01 (setting [11]), with HLA-B*57:01 (setting [11]) and in the assay with HLA-B*58:01 (setting [11]) was not above 4.70 in each case. Also, the pKd with HLA-B*15:17 [4] and in the assay with HLA-B*35:01 was not above 4.70 each time.
Consider KYFVRSTEK, for which the pKd is not above 4.70 in the assay with HLA-A*01:01 (setting [12]); not above 4.70 with HLA-A*02:01 [1] (setting [12]); 5.75 with HLA-A*11:01 (setting [12]); not above 4.70 in the assay with HLA-A*26:01; not above 4.70 in the assay with HLA-A*26:02 (setting [13]); not above 4.70 with HLA-A*26:03 (setting [13]). For the same sequence, the pKd with HLA-A*31:01 (setting [12]) is 8.68; with HLA-A*68:02 (setting [12]), not above 4.70; with HLA-B*07:02 [2] (setting [12]) it was not above 4.70; with HLA-B*08:01 [5] (setting [13]) it was not above 4.70; with HLA-B*08:02 (setting [13]), not above 4.70; with HLA-B*08:03 (setting [13]), not above 4.70. Moreover, the pKd with HLA-B*15:01 [3] (setting [12]), with HLA-B*15:17 [6] (setting [12]), with HLA-B*18:01 (setting [12]), with HLA-B*27:05 (setting [12]), with HLA-B*40:01 (setting [12]) and with HLA-B*46:01 (setting [12]) was not above 4.70 throughout. The pKd in the assay with HLA-B*48:01 (setting [12]), with HLA-B*57:01 (setting [12]) and with HLA-B*58:01 (setting [12]) was not above 4.70 each time.
With YFLKIKVTA, the pIC50 (commonly the IC50 on a negative log10 scale, so that one unit is a factor of ten) is 5.20 in the assay with HLA-A*02:01 [7] (setting [14]), 5.42 with HLA-A*24:02 (setting [14]) and 5.05 in the assay with HLA-B*08:01 [8] (setting [14]).
For REVFDYLLP, the pKd with HLA-A*01:01 (setting [15]), with HLA-A*02:01 [1] (setting [15]), with HLA-A*11:01 (setting [15]), with HLA-A*26:02 (setting [16]), with HLA-A*26:03 (setting [16]) and with HLA-A*31:01 (setting [15]) was not above 4.70 in each case. Besides, the pKd in the assay with HLA-A*68:02 (setting [15]), with HLA-A*69:01 (setting [15]), with HLA-B*07:02 [2] (setting [15]), in the assay with HLA-B*08:01 [5] (setting [16]), with HLA-B*08:02 (setting [16]) and with HLA-B*08:03 (setting [16]) was not above 4.70 throughout. Besides, the pKd is not above 4.70 with HLA-B*15:09; not above 4.70 in the assay with HLA-B*15:17 [6] (setting [15]); not above 4.70 with HLA-B*18:01 (setting [15]); not above 4.70 in the assay with HLA-B*27:05 (setting [15]); not above 4.70 with HLA-B*39:01 (setting [16]); 7.11 with HLA-B*40:01 (setting [15]). The pKd with HLA-B*44:02, in the assay with HLA-B*48:01 (setting [15]), in the assay with HLA-B*57:01 (setting [15]), with HLA-B*58:01 (setting [15]) and with HLA-A*30:01 was not above 4.70 each time.
ERGVRLHPL: the pIC50 with HLA-A*24:02 (setting [17]) was 4.35; in the assay with HLA-B*07:02 [9], not above 4.02; with HLA-B*08:01 [8] (setting [17]), 5.05.
As to VMNHKNKFM, the pIC50 is 5.45 with HLA-A*02:01 [7] (setting [17]), 5.67 with HLA-A*24:02 (setting [17]), 5.08 in the assay with HLA-B*08:01 [8] (setting [17]) and 4.74 with HLA-B*15:01 [10].
Regarding MSADNAGAL, the pKd with HLA-A*02:01 [1] (setting [18]), with HLA-A*02:12, with HLA-A*02:16, with HLA-A*02:19, with HLA-A*03:01 and in the assay with HLA-A*24:03 was not above 4.70 throughout. Moreover, the pKd with HLA-A*29:02, with HLA-B*18:01 (setting [18]), in the assay with HLA-B*27:03 and with HLA-B*57:01 (setting [18]) was not above 4.70 each time.

These data come from the Immune Epitope Database (IEDB).
